In paper PMC4549274:
One block for each substance: values may come before it.

What was measured:
Assay in all cases: native MS; nano-ESI native MS, 15 μM monomer, buffer-exchanged into 100 mM ammonium acetate pH 8.5, positive ion mode
[1] = biological target: CrRbcX-IIa(34–189) (Chlamydomonas reinhardtii)
[2] = biological target: CrRbcX-IIa(34–156) (Chlamydomonas reinhardtii)
[3] = biological target: CrRbcX-IIa(33–189) (Chlamydomonas reinhardtii)

stoichiometry N [1]: 4
Substance: CrRbcX-IIa(34–189) (domain or fragment)

stoichiometry N [2]: 4
Substance: CrRbcX-IIa(34–156) (domain or fragment)

stoichiometry N [3]: 2
Substance: CrRbcX-IIa(33–189) (natural protein)
